Measured values: US10117953B2, “Antibody drug conjugates” (Novartis AG, priority 2013, dated 2018)

Experiments:
[1] = target: T1, cKit receptor on normal human CD34+ bone marrow cells (Homo sapiens, UniProt P10721); test: cKit receptor levels on bone marrow cells by flow cytometry; format: cell-based; conditions: 10 μg/ml
T1 construct: host or cells: normal human CD34+ bone marrow cells (primary)
Experimental: In another internalization experiment, the impact of NEG085 on cKit receptor levels was evaluated on human bone marrow cells. Normal human CD34+ bone marrow cells (All Cells, Cat #ABM022F, Emeryville, Calif.) were thawed and washed with 10 mL of StemPro0-34 SFM medium (Gibco, Life Technologies, Carlsbad, Calif.). Cells were resuspended in 1.25 mL of StemPro-34 SFM medium at 4×10^5 cells/mL and split equally into two tubes. […] 100 μL of cell suspension was collected at each timepoint (0, 15, 30, 60, 120, and 240 min) from each condition, and placed into an ice cold collection tube to cease internalization. Cells were washed with 3 mL of ice-cold FBS stain buffer and resuspended in 100 μL of FBS stain buffer. […] of 104D2-BV421 (mouse anti-human IgG1 k, Biolegend) was added to each tube and incubated on ice for 1 hour. Following another wash with FBS stain buffer, total cKit receptors were measured by flow cytometry by assessing the mean fluorescence intensity of BV421 on a FACS Canto II® (BD Biosciences, San Jose, Calif.).

[2] = test system: cKIT phosphorylation in Mo7e and GIST T-1 cells; test: Western blot for agonistic properties (15 minutes treatment); format: cell-based, human; conditions: 5 ug/ml
Experimental: To evaluate the potential agonistic properties of cKIT ADCs, 2×10^6 of GIST T-1 (kindly provided by Dr. Takahiro Taguchi, Kochi U., Japan) or Mo7e (DSMZ, ACC-104) cells were serum starved overnight at 37° C. with 5% CO2 (DMEM for GIST T-1 and RPMI for Mo7e supplemented with 0.1% FBS) in 6-well plate (NUNC catalog #14067). […] One well was designated as untreated (UT). Cells were harvested in 1 ml PBS. […] Lysates were then spun down for 40 mins at 12,000 rpm at 4° C. 20 μg of each sample was boiled for 10 min at 75° C. and loaded on a 12-well NuPAGEO 4-12% Bis-Tris gel (Life Technologies, NP0322BOX, Carlsbad, Calif.). After protein transfer to membrane blots, membranes were blocked in TBST-5% milk at room temperature for 1 hour and then probed with primary antibodies overnight at 4° C. Blots were washed in TBST (4×5 mins) on the next day. Blots were incubated in the secondary antibody (goat-anti rabbit-HRP 1:30,000, Santa Cruz) for 1 hr at room temperature. Blots were washed in TBST (4×5 mins) and developed. […]

[3] = test system: surface cKIT on GIST-T1 cells; test: Ab-mediated internalization of surface cKIT by flow cytometry; format: cell-based, human; conditions: 10 ug/ml, 30 min to 24 hr at 37° C.
Experimental: The kinetics of cKIT antibody mediated internalization was evaluated by treating with antibody in a cell monolayer using a temperature shift method and flow cytometry readout. GIST-T1 (kindly provided by Dr. Takahiro Taguchi, Kochi U., Japan) cells were seeded at 2.5×10E5 cells/well in five 12-well tissue culture treated plates (BD Falcon 353043). The cells were incubated in a tissue culture incubator at 37° C. with 5% CO2 overnight. The following day medium was removed and replaced with 450 ul fresh medium. […] All cells were incubated for 1 hr on ice, followed by two washes with 1 mL 1× Phosphate buffered saline (PBS) and resuspended in 500 μl cell culture medium. Plates #2-5 were transferred to 37° C. and harvested at time points; 30 min, 2 hr, 4 hr and 24 hr at 37° C. with 5% CO2. 100 μl of cell dissociation buffer (Gibco Cat#13150-016, Life Technologies, Carlsbad, Calif.) was added to plate#1 (4° C. binding control) and incubated at 37° C. until cells were detached. […] The following day, all samples were analyzed using the BD FACSCanto II® equipment using a HTS system (BD Biosciences, San Jose, Calif.). Samples were analyzed with FlowJo software to obtain the Geometric Mean values of fluorescence for the Phyeoerythrin channel, FIG. 13A is a plot of % of initial cell surface binding vs […] at 37° C.×100.

Uke-1 cells = test: ADCC activity in vitro (Calcein release, NK3.3 effector cells); format: cell-based, human; conditions: effector to target ratio 20 to 1
Experimental: In brief, Uke-1 cells were stained with Calcein acetoxy-methyl ester (Calcein-AM; Sigma-Aldrich catalog #17783-5MG, St. Louis, Mo.), washed twice, pipetted into a 96-well microtiterplate (96 well, U-bottomed, clear plastic; Corning Costar, catalog #650 160, Tewksbury, Mass.) at a concentration of 5000 cells per well and pre-incubated for 10 min with a serial dilution of the above mentioned antibodies and proteins (from 50,000 to 0.003 μg per ml) before adding the effector NK3.3 cells for 1 hour in an effector to target ratio of 20 to 1. In order to calculate the antibody specific lysis of the target cells, a parallel incubation of target cells only without antibody or effector cells served as a baseline and negative control, whereas the positive control or maximal lysis or hundred percent specific lysis was determined by lysis of target cells only with a 1% Triton-X 100 solution. […] Following a co-incubation of target and effector cells, the microtiterplate was centrifuged and an aliquot of the supernatant fluid was transferred to another microtiterplate (96 well, flat-bottomed, black with clear bottom; Corning Costar, catalog #3904, Tewksbury, Mass.) and the concentration of free Calcein in solution was determined with a fluorescence counter (Victor 3® multilabel counter, Perkin Elmer, Waltham, Mass.).

T1 sequence (P10721 26-976): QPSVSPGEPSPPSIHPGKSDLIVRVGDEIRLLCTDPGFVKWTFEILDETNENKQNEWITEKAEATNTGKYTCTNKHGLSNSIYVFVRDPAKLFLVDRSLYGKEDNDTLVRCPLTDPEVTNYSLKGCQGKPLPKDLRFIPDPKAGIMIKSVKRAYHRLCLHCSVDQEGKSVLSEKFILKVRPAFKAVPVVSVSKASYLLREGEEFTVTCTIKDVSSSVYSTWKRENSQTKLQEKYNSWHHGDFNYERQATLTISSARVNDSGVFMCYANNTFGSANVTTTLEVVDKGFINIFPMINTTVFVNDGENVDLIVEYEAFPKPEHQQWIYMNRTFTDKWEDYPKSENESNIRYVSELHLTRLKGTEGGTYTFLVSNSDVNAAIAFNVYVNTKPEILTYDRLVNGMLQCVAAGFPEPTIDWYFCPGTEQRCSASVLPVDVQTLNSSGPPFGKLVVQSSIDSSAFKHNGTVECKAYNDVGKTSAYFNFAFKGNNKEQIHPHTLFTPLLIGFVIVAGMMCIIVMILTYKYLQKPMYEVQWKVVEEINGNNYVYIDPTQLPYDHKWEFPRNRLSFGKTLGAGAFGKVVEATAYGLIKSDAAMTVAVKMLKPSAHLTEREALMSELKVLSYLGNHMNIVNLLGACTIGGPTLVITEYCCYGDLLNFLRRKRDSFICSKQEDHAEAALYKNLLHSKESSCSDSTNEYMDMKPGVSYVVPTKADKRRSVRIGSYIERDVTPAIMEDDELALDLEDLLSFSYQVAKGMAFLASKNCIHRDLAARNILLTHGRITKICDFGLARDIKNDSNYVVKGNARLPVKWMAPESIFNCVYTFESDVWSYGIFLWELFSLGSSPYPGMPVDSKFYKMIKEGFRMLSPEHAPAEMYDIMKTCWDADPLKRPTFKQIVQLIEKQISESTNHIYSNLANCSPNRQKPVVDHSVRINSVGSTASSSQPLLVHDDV
Chain of surface cKIT on GIST-T1 cells (P10721 26-509 limits assumed): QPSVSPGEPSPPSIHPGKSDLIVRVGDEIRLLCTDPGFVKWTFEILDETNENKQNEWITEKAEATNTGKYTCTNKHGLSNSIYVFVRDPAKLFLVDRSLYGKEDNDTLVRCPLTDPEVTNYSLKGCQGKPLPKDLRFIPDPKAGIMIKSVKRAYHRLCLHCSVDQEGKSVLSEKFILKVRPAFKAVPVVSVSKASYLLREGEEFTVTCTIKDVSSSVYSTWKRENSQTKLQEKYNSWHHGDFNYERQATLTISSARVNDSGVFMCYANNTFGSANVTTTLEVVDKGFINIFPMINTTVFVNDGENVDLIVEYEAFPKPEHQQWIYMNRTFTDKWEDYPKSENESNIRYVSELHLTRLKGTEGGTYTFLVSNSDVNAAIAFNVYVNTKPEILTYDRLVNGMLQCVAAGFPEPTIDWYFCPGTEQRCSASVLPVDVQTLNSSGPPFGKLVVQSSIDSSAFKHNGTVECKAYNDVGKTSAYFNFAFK

B1: NEG085: anti-cKIT antibody of Table 1; VH SEQ ID NO 82, VL SEQ ID NO 91; derived from 9P3 (antibody, V domains shown)
VH: EVQLVESGGGLVQPGGSLRLSCAASGFAFSGYYMAWVRQAPGKGLEWVANINYPGSSTYYLDSVKGRFTISRDNAKNSLYLQMNSLRAEDTAVYYCARGDYYGTTYWYFDVWGQGTTVTVSS
VL: DIQMTQSPSSLSASVGDRVTITCRASQSISSYLNWYQQKPGKAPKLLIYYTSRLQSGVPSRFSGSGSGTDFTLTISSLQPEDFATYYCQQGRRLWSFGGGTKVEIK
Q: Which results are given for B1?
A: time of the bulk of the internalization [1]: 15 min; cKIT internalization ([1]; 0-240 min): rapidly internalized; downstream signaling (phospho ERK, phospho AKT) [2]: downstream signaling pathways are not affected; phosphorylation of cKIT ([2]; absence of ligand (SCF)): can mediate phosphorylation of cKIT in the absence of ligand (SCF); internalization after binding cKIT on the cell surface [3]: rapidly internalized into the cell; ADCC (Uke-1 cells): not able to induce ADCC even at higher concentrations
